From paper PMC4782291, “Comparative characterization of two GDP-mannose dehydrogenase genes from Saccharina japonica (Laminariales, Phaeophyceae)” (BMC Plant Biology, 2016)

Assays:
purified protein [1] = substrate: NC(=O)c1ccc[n+]([C@@H]2O[C@H](COP(=O)(O)OP(=O)(O)OC[C@H]3O[C@@H](n4cnc5c(N)ncnc54)[C@H](O)[C@@H]3O)[C@@H](O)[C@H]2O)c1; assay: purified protein; format: biochemical, Saccharina japonica; settings: 100 mM Tris-HCl, co-substrate GDP-mannose, MBP fusion, varied: cofactor
purified protein [2] = substrate: Nc1nc2c(ncn2[C@@H]2O[C@H](COP(=O)(O)OP(=O)(O)O[C@H]3O[C@H](CO)[C@@H](O)[C@H](O)[C@@H]3O)[C@@H](O)[C@H]2O)c(=O)[nH]1; assay: purified protein; format: biochemical, Saccharina japonica; settings: 100 mM Tris-HCl, co-substrate NAD+, MBP fusion
[3] = optimal conditions (pH 8.25, 20 °C)
[4] = optimal conditions (pH 8.0, 30 °C)

| Protein | Km (purified protein [1]; [3]) [µM] | Km (purified protein [2]; [3]) [µM] | Km (purified protein [1]; [4]) [µM] | Km (purified protein [2]; [4]) [µM] |
| --- | --- | --- | --- | --- |
| SjGMD2 (Saccharina japonica) (protein) MSGKENVVQIGCGVVGGAYAKAYVHHGFSLTGFDVVPAIIGNMNEAGIKCFHPDDCPADLNADIVLLSVPTPLIKETQRLDMKYVWSTIPLVVKLVEQSSGLAPILVIRSTVPPGTTLKWEAEVRAKTDKPFKVAFQPEFLRAVSCEEDARAPWQIVFGCAKDADETRTRMSNCFLDFVGRDEAKLTVLNIAEAEFMKLVHNYANGLKISFANCIYGLAHELDPTIDAQKVLYLVSSTAECYLSRKYGLRVGAPYGGVCLPKDVPELTSLAPEGSVFREFLAGTGKINEWITNTPNLKVELTESPNWVSPSELII | 195 | 177 | – | – |
| SjGMD1 (Saccharina japonica) (protein) MAEVMPKESIIQIGCGVVGGAYAKAYKHHGFSVRGFDVVPSIIEKMNDAGIPCCHPDDCPEDLNPEIVLLSVPTPLIKETQRLDMKYVWSTVPLVLKLVEQSTGPAPIFVIRSTVPPGMTKEWMAAVKEKATKPFHVAFQPEFLRAVSCEEDARAPWQVVFGYMTGEEEVKARMTNAFLEFVGRDESKLTVLNIAEAEFMKLAHNYANGLKISFANCIYGLANQLDPTIDAQKVLYLVSSTAECFLSRKYGLRVGAPYGGVCLPKDVPELTSLAPEGSVFREFLAGTGKINEWISGPEAKNMRVELDESPNWVSPDSLTT | – | – | 139 | 289 |
